Data on 14 molecules can be found in US5493008A, “Two non-contiguous regions contribute to nidogen binding to a single EGF-like motif of the laminin γ1 chain” (The University Of Virginia Patent Foundation, priority 1994, dated 1996).

Like-named read-outs stand apart in the source and are kept apart here. Where a SMILES comes first, the peptide text is derived from it. Where no end group is shown, it is not given here. The star is where a group is joined. Nle‑OMe = norleucine methyl ester coupled to carboxyl groups via carbodiimide, CCCC[C@H](N*)C(=O)OC

One assay has as its target T1, nidogen (Mus musculus, UniProt P10493).
T1 sequence (P10493 29-1245): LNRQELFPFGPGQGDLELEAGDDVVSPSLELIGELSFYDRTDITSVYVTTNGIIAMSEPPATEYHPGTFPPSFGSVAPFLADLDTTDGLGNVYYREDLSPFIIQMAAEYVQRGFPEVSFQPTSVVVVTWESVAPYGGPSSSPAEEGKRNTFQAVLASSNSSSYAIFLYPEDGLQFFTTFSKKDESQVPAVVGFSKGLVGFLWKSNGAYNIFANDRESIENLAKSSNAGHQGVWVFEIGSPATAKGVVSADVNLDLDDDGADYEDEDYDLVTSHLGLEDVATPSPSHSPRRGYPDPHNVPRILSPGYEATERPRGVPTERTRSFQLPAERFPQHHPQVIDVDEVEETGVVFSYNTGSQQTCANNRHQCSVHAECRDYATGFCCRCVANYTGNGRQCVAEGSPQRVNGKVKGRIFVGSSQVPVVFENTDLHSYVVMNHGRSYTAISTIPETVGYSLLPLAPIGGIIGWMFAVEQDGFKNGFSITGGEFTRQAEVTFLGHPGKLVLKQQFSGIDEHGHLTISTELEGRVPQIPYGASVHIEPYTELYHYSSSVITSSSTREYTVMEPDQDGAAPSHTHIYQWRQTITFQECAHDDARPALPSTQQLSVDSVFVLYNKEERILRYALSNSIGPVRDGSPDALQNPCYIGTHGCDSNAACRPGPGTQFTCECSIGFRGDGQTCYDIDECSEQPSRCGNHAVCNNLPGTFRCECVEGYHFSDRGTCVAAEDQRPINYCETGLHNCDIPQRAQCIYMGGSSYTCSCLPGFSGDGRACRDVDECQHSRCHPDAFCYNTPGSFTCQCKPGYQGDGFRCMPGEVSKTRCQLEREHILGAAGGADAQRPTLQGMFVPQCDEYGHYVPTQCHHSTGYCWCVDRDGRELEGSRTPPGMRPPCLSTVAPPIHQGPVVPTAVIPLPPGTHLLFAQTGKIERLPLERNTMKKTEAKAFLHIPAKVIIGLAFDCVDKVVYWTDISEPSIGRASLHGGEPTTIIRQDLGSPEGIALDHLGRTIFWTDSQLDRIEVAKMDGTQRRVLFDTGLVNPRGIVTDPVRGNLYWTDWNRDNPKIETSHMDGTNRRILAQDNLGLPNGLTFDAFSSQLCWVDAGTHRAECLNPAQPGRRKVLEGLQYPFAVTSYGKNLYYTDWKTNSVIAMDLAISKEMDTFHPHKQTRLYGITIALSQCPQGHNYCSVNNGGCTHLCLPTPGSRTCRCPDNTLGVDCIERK
Description: Radioligand competition assay: inhibition of 125I-laminin fragment P1 binding to nidogen. The procedure: A radioligand competition assay was used for measurement of relative binding affinities (Mann K. et al. (1988), Eur. J. Biochem., 178, 71-80; Fox, J. W. et al. (1991), EMBO J., 10, 3137-3146). A fixed concentration of recombinant nidogen (0.2 nM) was incubated overnight at 4° C. with inhibitors at varying concentrations, followed by the addition of ^125 I-labeled laminin fragment P1 (0.01 nM; 10,000-20,000 c.p.m.) for the same incubation period. Bound and non-bound fragment P1 was then separated by antibodies against nidogen. Competitor concentrations causing 50% inhibition (IC50) were determined from dose-response profiles. […] IC50 values compared from different assays were normalized to a single fragment P1 value.
(Displacement assays read how much labelled ligand stays bound in the presence of the test substance.)

For a further assay, the target named is T2, recombinant nidogen (Mus musculus (Mouse), UniProt P10493).
T2 sequence: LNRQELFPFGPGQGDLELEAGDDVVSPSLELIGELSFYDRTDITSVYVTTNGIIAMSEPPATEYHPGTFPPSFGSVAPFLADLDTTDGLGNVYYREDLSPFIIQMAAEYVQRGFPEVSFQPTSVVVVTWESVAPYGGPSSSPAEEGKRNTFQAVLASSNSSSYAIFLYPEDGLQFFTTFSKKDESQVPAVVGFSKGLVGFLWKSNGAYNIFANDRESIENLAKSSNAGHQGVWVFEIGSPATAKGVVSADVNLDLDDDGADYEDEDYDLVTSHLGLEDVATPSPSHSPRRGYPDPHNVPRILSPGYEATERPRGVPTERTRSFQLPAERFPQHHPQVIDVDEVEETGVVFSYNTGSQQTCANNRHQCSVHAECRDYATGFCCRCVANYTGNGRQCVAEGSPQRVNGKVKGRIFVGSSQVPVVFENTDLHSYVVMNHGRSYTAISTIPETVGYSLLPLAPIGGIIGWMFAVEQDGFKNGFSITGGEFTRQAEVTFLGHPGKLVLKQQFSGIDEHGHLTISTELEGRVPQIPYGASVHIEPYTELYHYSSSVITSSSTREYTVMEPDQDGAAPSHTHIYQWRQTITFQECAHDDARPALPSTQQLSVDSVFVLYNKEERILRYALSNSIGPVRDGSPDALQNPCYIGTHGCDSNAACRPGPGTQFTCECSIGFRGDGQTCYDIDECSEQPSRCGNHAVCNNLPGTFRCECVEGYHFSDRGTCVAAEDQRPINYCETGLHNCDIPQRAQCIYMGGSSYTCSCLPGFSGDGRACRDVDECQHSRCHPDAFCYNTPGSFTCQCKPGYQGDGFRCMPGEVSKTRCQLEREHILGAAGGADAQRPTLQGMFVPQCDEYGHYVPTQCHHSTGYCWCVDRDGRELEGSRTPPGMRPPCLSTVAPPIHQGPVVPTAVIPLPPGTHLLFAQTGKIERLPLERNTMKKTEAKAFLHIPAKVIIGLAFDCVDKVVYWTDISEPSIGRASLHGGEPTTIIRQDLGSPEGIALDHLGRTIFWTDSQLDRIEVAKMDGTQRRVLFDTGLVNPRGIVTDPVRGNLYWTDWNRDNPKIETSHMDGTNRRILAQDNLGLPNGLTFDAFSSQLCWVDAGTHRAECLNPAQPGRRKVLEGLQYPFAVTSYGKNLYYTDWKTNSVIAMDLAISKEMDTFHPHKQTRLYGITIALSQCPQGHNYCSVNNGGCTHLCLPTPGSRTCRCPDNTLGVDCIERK
Description: radioligand competition assay: inhibitor varied, 0.2 nM recombinant nidogen, 125I-laminin fragment P1. The procedure:
A radioligand competition assay was used for measurement of relative binding affinities (Mann K. et al. (1988), Eur. J. Biochem., 178, 71–80; Fox, J. W. et al. (1991), EMBO J., 10, 3137–3146). A fixed concentration of recombinant nidogen (0.2 nM) was incubated overnight at 4° C. with inhibitors at varying concentrations, followed by the addition of ^125I-labeled laminin fragment P1 (0.01 nM; 10,000–20,000 c.p.m.) for the same incubation period. Bound and non-bound fragment P1 was then separated by antibodies against nidogen.

Take NVDPSAS [NVDPSAS]: the IC50 at nidogen (Table III, amino acid replacements in heptapeptide NIDPNAV, read-out: IC50 (inhibitory capability for laminin-nidogen binding)) is more than 290000 nM.
For `CC[C@H](C)[C@@H]1NC(=O)[C@H](CC(N)=O)NC(=O)[C@H](CC(=O)O)NC(=O)[C@H](CC(N)=O)NC(=O)[C@@H]2CSSC[C@@H](C(=O)N[C@@H](CC(C)C)C(=O)O)NC(=O)[C@H](CCC(=O)O)NC(=O)CNC(=O)[C@H]([C@@H](C)O)NC(=O)[C@H](CC(C)C)NC(=O)[C@H](CCCNC(=N)N)NC(=O)[C@H](CC(N)=O)NC(=O)[C@H](CSSC[C@H](NC(=O)[C@@H]3CCCN3)C(=O)N[C@@H](CCC(N)=O)C(=O)N2)NC(=O)[C@H](CC(N)=O)NC(=O)CNC(=O)[C@H](C(C)C)NC(=O)[C@H](C)NC(=O)[C@H](CC(N)=O)NC(=O)[C@@H]2CCCN2C(=O)[C@H](CC(=O)O)NC1=O` [loop a,b, oxidized] (HELM PEPTIDE1{P.C.Q.C.N.D.N.I.D.P.N.A.V.G.N.C.N.R.L.T.G.E.C.L}$PEPTIDE1,PEPTIDE1,2:R3-16:R3|PEPTIDE1,PEPTIDE1,4:R3-23:R3$$$V2.0), the IC50 at nidogen (read-out: IC50) worked out at 400 nM.

B1: recombinant fragment γ1III3-5 (other)
chain: PCPCPGGSSCAIVPKTKEVVCTHCPTGTAGKRCELCDDGYFGDPLGSNGPVRLCRPCQCNDNIDPNAVGNCNRLTGECLKCIYNTAGFYCDRCKEGFFGNPLAPNPADKCKACACNPYGTVQQQSSCNPVTGQCQCLPHVSGRDCGTCDPGYYNLQSGQGCE
In the case of B1, the IC50 with recombinant nidogen came out at 0.04 nM.

B2: γ1III3-5, Asp/Glu amidation (other)
chain: PCPCPGGSSCAIVPKTKEVVCTHCPTGTAGKRCELCDDGYFGDPLGSNGPVRLCRPCQCNDNIDPNAVGNCNRLTGECLKCIYNTAGFYCDRCKEGFFGNPLAPNPADKCKACACNPYGTVQQQSSCNPVTGQCQCLPHVSGRDCGTCDPGYYNLQSGQGCE
modifications: carboxyl groups (Asp, Glu) activated with 1-ethyl-3-dimethylaminopropylcarbodiimide and blocked by norleucine methylester
Take B2: the concentration for half-maximal inhibition (IC50) with recombinant nidogen is 2.1 nM.
Turning to NVDPSAV, in the assay with recombinant nidogen, the binding result was “no binding (tested: >180,000 nM)”.
Take PCQCN [E3, 792-796]: the binding result in the assay with recombinant nidogen is “no binding (tested: >96,000 nM)”.
Regarding NVDPNAS, the binding result in the assay with recombinant nidogen is “no binding (tested: >160,000 nM)”.
For the molecule AVGNCNR [Th1, 803-809], the binding result in the assay with recombinant nidogen is “no binding (tested: >30,000 nM)”.
For NIDPNA [NIDPNA (S, 798-803)], in the assay with recombinant nidogen, the binding result was “no binding (tested: >460,000 nM)”.

B3: synthetic loop a,b, amidated (792-815) (peptide)
peptide: PCQCND(Nle‑OMe)NTD(Nle‑OMe)PNAVGNCNRLTGE(Nle‑OMe)CL
modifications: not fully specified; cysteine pairing not given here; also: carboxyl groups of Asp and Glu blocked with norleucine methyl ester (amidation), sites not placed
B3: the concentration for half-maximal inhibition (IC50) in the assay with recombinant nidogen is more than 5400 nM.

B4: γ1III3-5Δ4: recombinant deletion mutant joining repeats 3 and 5, lacking EGF-like repeat 4 (protein)
chain: PCPCPGGSSCAIVPKTKEVVCTHCPTGTAGKRCELCDDGYFGDPLGSNGPVRLCRACACNPYGTVQQQSSCNPVTGQCQCLPHVSGRDCGTCDPGYYNLQSGQGCE
As for B4, in the assay with nidogen (Table IV, recombinant mutants and chimeric structures of γ1III4, read-out: IC50 (inhibitory activity for laminin-nidogen binding)), the IC50 is more than 3200 nM. In addition, the “inhibitory activity in words” value in the assay with nidogen (laminin-nidogen binding competition) is recorded as “without measurable activity”.
As to NVDPSAS, the binding result with recombinant nidogen is “no binding (tested: >290,000 nM)”.
As to NIDPNAVGN [NIDPNAVGN (S, 798-806)], in the assay with recombinant nidogen, the IC50 is 600 nM.
As for DNIDPNAVGNCNRLTGECL [E1, 797-815], the half-maximal inhibitory concentration (IC50) with recombinant nidogen is 530 nM.

What is called IC50 is the concentration at which inhibition is half-maximal.
